Assay results as given in patent US20210269549A1, “ANTI-SAS1B ANTIBODIES, ASSOCIATED METHODS OF USE, AND COMPOSITIONS AND METHODS FOR DETECTING AND TREATING CANCER” (UNIVERSITY OF VIRGINIA PATENT FOUNDATION, priority 2015, published 2021).
Substitutions are numbered along the chain they refer to.

What was measured:
[1] = target: T1, SAS1B extracellular domain (aa 164-431) polypeptide (Homo sapiens, UniProt Q6HA08); assay: Western blot with mammalian cell-expressed recombinant SAS1B, extracellular domain; format: binding
T1 construct: SAS1B extracellular domain (aa 164-431) polypeptide; made in house
T1 sequence (Q6HA08 164-431): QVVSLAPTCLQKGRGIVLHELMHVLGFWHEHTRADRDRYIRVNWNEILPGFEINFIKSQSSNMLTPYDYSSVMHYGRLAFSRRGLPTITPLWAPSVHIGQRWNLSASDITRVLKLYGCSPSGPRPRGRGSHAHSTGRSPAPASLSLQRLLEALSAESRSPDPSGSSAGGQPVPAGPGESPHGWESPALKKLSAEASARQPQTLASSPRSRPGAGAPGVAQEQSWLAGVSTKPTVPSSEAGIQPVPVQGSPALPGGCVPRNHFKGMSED
Procedure: SAS1B monoclonal antibodies were analyzed with mammalian cell-expressed recombinant SAS1B by western blotting.

[2] = system: uterine cancer cell line (MMMT539); assay: Morphology of uterine cancer cells after 93 h of anti-SAS1B antibody drug treatment; format: cell-based, human; settings: 0.1 nM mAb with 15 nM Fab-DMDM
Procedure: The morphology of uterine cancer cell line (SNU539) and uterine cancer cell line (MMMT539) after 93 h of anti-SAS1B antibody drug treatment were examined.

[3] = target: T2, recombinant human SAS1B antigen (Homo sapiens, UniProt Q6HA08); assay: Capture assay by sandwich ELISA; format: binding; settings: SB2 coupled to magnetic beads, SB5 coupled to HRP as detection agent, 96 well ELISA format
T2 sequence (Q6HA08 24-431): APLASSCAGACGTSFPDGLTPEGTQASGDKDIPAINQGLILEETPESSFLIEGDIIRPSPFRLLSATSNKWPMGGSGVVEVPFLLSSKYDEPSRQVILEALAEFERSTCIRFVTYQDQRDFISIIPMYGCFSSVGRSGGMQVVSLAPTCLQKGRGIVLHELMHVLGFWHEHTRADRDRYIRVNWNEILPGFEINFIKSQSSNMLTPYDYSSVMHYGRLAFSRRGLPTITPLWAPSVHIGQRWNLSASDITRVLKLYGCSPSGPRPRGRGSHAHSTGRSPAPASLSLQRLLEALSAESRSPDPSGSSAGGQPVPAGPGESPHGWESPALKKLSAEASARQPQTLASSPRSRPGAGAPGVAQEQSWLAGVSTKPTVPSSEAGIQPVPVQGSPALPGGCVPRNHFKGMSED
Description: The antibodies were used to develop a capture assay by sandwich ELISA. The support was a magnetic bead (MB) coupled to SB2, SB3, SB4, or SB5 mAbs. The antigen was a recombinant human SAS1B antigen. Detection was accomplished with mAbs SB2, SB3, SB4, SB5 conjugated with HRP. A HRP substrate was used and TMB was used for quantitation.
The retention of HRP activity after conjugations to SASB1 SB2, SB3, SB4, SB5, and anti-CABYR monoclonal antibody 3A4 was examined. The assay method detected 0.2 femtomole of IgGs. Where SB2 is coupled to magnetic beads and SB5 coupled to HRP is used as a detection agent in a 96 well ELISA format 2.7 pmole/ml of rhSAS1B can be detected.

renal carcinoma cells = assay: ADC assay on renal carcinoma cells; format: cell-based; settings: 15 nM Fab-DMDM, 4 days
Procedure: The cytotoxic effect of anti-EGFR (AY13), anti-SAS1B (SB2) and anti-CABYR (3A4) monoclonal antibodies on renal carcinoma cells were tested by ADC assay. An average of 3 experiments in triplicate is reported.

[4] = system: renal cell carcinoma cell line (M1); assay: Morphology of renal cell carcinoma cell line (M1) after 93 h of antibody drug treatment; format: cell-based; settings: 1 nM mAb with 15 nM Fab-DMDM
Procedure: The morphology of renal cell carcinoma cell line (M1) after 93 h of anti-EGFR antibody drug treatment was examined.

[5] = system: human uterine cancer cells (MMMT539); assay: Antibody drug conjugate cytotoxicity (ADC) assay, MMMT539; format: cell-based; settings: 0.1 nM mAb, Fab-DMDM constant at 15 nM, ~90 h
Procedure: The cytotoxic effect of anti-human SAS1B mAbs SB2 and SB5 on human uterine cancer cells (MMMT539) was examined by antibody drug conjugate cytotoxicity (ADC) assay. Human uterine cancer cells MMMT539 were seeded in triplicate on 96 well plate overnight and then treated with SB2 or SB5 and anti-mouse Fab-cleavable-Duocarmycin complex for ˜90 h. The presence of viable live cells per well was measured by total cellular ATP content in relative luminescence unit (RLU). Viability of control live cells (100%) was determined from average of 9 wells in terms of total cellular ATP (in RLU) containing the constant 15 nM Fab-CL-DMDM for each set of antibody/reagent. […] Staurosporine, a general protein kinase inhibitor, was used to induce apoptosis in 1% DMSO as a positive control for the assay.

[6] = system: PDAC cell line known as 366; assay: Live indirect immunofluorescence cell surface staining, 366; format: cell-based, human; settings: for Cells staining for cell surface SAS1B: 366, primary antibody 20 ug/mL; for Recognition of cell surface SAS1B: live 366 cells, primary antibodies 20 ug/mL
Procedure: (§1) Live MPanc96 cells (pancreatic ductal adenocarcinoma cell line) were incubated with different anti-SAS1B monoclonal antibodies (as well as DAPI stain) for nucleus localization. Cells were fixed and permeabilized after primary and secondary antibody incubation thus fluorescence staining observed represents surface localized SAS1B. Monoclonal antibodies SB4 and SB5 were used, as well as normal rabbit or mouse IgG's as a negative control. All primary antibodies were used at a concentration of 20 ug/mL.
(§2) The live indirect immunofluorescence protocol is as follows. The cells were dissociated with Acutase and plated on fibronectin coated coverslips. MPanc96 cells were allowed to grow 2-3 days and 366 cells were allowed to grow for 3-4 days. The cells were blocked (blocking 1 solution) with 5% NGS in media for 30 min at RT and then blocked with 5% NGS in chilled media+0.1% sodium azide (blocking 2 solution) for 30 min on ice. The primary antibody (SB4, SB5 or control) was added at 20 ug/mL in blocking 2 solution for 2 hours on ice at 4° C. The cells were washed 3× for 5 minutes each on ice. The secondary antibody (goat anti-Ms/Rb Alexa488 (1:500)) was added in blocking 2 solution for 1 hour in dark on ice at 4° C. The cells were washed 3× for 5 min each on ice and then were fixed with 4% PFA-PBS for 15 min in the dark at RT. The cells were washed 2× for 5 min each at RT and then stained with DAPI stain (1:1000) for 10 min at RT. The cells were washed 2× for 5 min each at RT and then were treated with prolong gold antifade. […] About 10-20% of the SB5 treated cells stained for SASB1.

[7] = system: MPanc96 cells (pancreatic ductal adenocarcinoma cell line); assay: Live indirect immunofluorescence cell surface staining, MPanc96; format: cell-based, human; settings: for Cells staining for cell surface SAS1B: MPanc96, primary antibody 20 ug/mL; for Immunoreaction with cell surface localized SAS1B: live MPanc96, primary antibodies 20 ug/mL
Procedure: as §1, §2

B1: SB1: mouse anti-SAS1B monoclonal antibody, IgG2a; VH SEQ ID NO:12, VL SEQ ID NO:13 (antibody, listed as Mus musculus, V domains shown)
VH: EVQLQQSGPELVKPGSSVKISCKASGYTFTDYNMDWVKQSHGKSLEWIGAINPNNGGTSYNQKFKGKATLTVDKSSSTAYMELRSLTSEDSAVYYCATNEYWGQGTTLTVSS
VL: NIVMTQSPKSMSMSVGERVTLSCKASENVGTYVSWYQQKPEQSPKLLIYGASNRYTGVPDRFTGSGSATDFTLTISSVQAEDLADYHCGQSYSYPWTFGGGTKLEIK
- Reaction with SAS1B extracellular domain (aa 164-431) polypeptide [1]: none of the them reacted

B2: SB2: mouse anti-human SAS1B monoclonal antibody, IgG2b; VH SEQ ID NO:14, VL SEQ ID NO:15 (antibody, listed as Mus musculus, V domains shown)
VH: EVQLQQSGPELVKPGSSVKISCKASGYTFTDYNMVWVKQSHGKSLEWIGAVNPNNGGTSYNQKFKGKATLTVDKSSSTAYMELRSLTSEDSAVYYCVPNWDWFAYWGQGTLVTVSA
VL: DVLMTQTPLSLPVSLGDQASISCRSSQSLVHSNGNTYLEWYLQKPGQSPNLLIYKVSNRFSGVPDRFSGSGSGTDFTLKISRVEAEDLGVYYCFQGSHVPFTFGSGTKLEIK
- Reaction with SAS1B extracellular domain (aa 164-431) polypeptide [1]: none of the them reacted
- Cell killing and inhibition of cell proliferation (morphology) [2]: clear cell killing and inhibition of cell proliferation
- rhSAS1B that can be detected [3]: 2.7 pmol/mL
- Cytotoxic effect (renal carcinoma cells): cytotoxic effect at 0.01, 0.1 nM and higher concentrations
- Cell killing and inhibition of cell proliferation (morphology) [4]: a large number of rounded dead cells
- Cancer cells killed [5]: 87%

B3: SB4: mouse anti-human SAS1B monoclonal antibody, IgG2a; VH SEQ ID NO:16, VL SEQ ID NO:17 (antibody, listed as Mus musculus, V domains shown)
VH: B2 VH with A24P, V37M, V51I, S59T, V97A
VL: B2 VL with L29I, V30L, N50K
- Reaction with SAS1B extracellular domain (aa 164-431) polypeptide [1]: none of the them reacted
- Cells staining for cell surface SAS1B [6]: 65-80%
- Recognition of cell surface SAS1B [6]: recognize cell surface SAS1B in pancreatic cancer cell lines
- Cells staining for cell surface SAS1B [7]: 65-80%
- Immunoreaction with cell surface localized SAS1B [7]: immunoreact with cell surface localized SAS1B

B4: SB5: mouse anti-human SAS1B monoclonal antibody, IgG2b; VH SEQ ID NO:16, VL SEQ ID NO:18 (antibody, listed as Mus musculus, V domains shown)
VH: B2 VH with A24P, V37M, V51I, S59T, V97A
VL: B2 VL with T7I, L29I, V30L, N50K
- Reaction with SAS1B extracellular domain (aa 164-431) polypeptide [1]: none of the them reacted
- Cells staining for cell surface SAS1B [6]: 10-20%
- Recognition of cell surface SAS1B [6]: recognize cell surface SAS1B in pancreatic cancer cell lines
- Cell killing and inhibition of cell proliferation (morphology) [2]: clear cell killing and inhibition of cell proliferation
- rhSAS1B that can be detected [3]: 2.7 pmol/mL
- Cell killing and inhibition of cell proliferation (morphology) [4]: clear cell killing and inhibition of cell proliferation properties
- Cancer cells killed [5]: 75%
- Cells staining for cell surface SAS1B [7]: 10-20%
- Immunoreaction with cell surface localized SAS1B [7]: immunoreact with cell surface localized SAS1B

B5: SB3: mouse anti-human SAS1B monoclonal antibody, IgG2b; VH SEQ ID NO:14, VL SEQ ID NO:15 (antibody, listed as Mus musculus, V domains shown)
VH: B2 VH
VL: B2 VL
- Reaction with SAS1B extracellular domain (aa 164-431) polypeptide [1]: none of the them reacted
